Reference: the nanobody polyreactivity screen of Harvey et al. (2022)

Experiment: yeast display, Sf9 membrane polyspecificity reagent, FACS + sequencing; frameworks hold sequencing errors
Method in brief: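 After 36–48 hours of galactose induction, yeast (Saccharomyces cerevisiae BJ5465) displaying a synthetic nanobody library were stained at 4 °C for 1 hour with 10% biotinylated, detergent-solubilized Sf9 membrane reagent. Streptavidin microbeads enriched the stained cells before FACS sorting into low and high (top ~1%) gates on anti-HA and streptavidin fluorescence. Each clone's polyreactivity label reflects its gate of origin.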

| Sequence | polyreactivity (PSR sort gate) |
| --- | --- |
| QVQLVESGGGLVQAGGSLRLSCAASGSTFSYYAMGWDRQAPWKERELVAAITAGGGSTYYADSVKGRFTISRDNAKNTVYLQMNSLKPEDTAVYYCNADQIFGPALNLWKLDYWGQGTQVTVSS | low polyreactivity |
| QVQLVESGGGLVQAGGSLRLSCAASGSTFSYYAMGWYRQAPGKEREFVAAISSSGGRTYYADSVKGRFTISRDNAKNTVYLQMNSLKPEDTAVYYCNAYYLAEYDYWGQGTQVTVSS | high polyreactivity |
| QVQLVESGGGLVQAGGSLRLSCAASGSTFSYYAMGWYRQAPGKERELVAAIRSDGGSTYYADSVKGRFTISRDNAKNTVYLQMNSLKPEDTAVYYCNAPYRRSAKFRRYGYDYWGQGTQVTVSS | high polyreactivity |
| QVQLVESGGGLVQAGGSLRLSCAASGSTFSYYAMGWYRQAPWKERELVAASTAGGGSTYYADSVKGRFTISRDNAKNTVYLHMNSLKPEDTAVYYCNADQIFGPALNLWKLDYWGQGTQVTVSS | low polyreactivity |
| QVQLVESGGGLVQAGGSLRLSCAASGSTFTANAMGWSRQAPGKERELVAAISRSGGSTYYADSVKWRFTISRDNAKNTVYLQMNSLKPEDTAVYYCAAESPLFSPPDGEDYWGQGTQVTVSS | low polyreactivity |
| QVQLVESGGGLVQAGGSLRLSCAASGSTFTDYAMGWYRQAPGKERELVAAIRFSGGSTYYADSVKGRFTISRDNAKTTVYLQMNSLKPEDTAVYYCAAAGYPWLDSWGQGTQVTVSS | low polyreactivity |
| QVQLVESGGGLVQAGGSLRLSCAASGSTFTENAMGWYRQAPGKERELVATISTSDGSTHYADSVKGRFTISRDNAKNTVYLQMNSLKPEDTAVYYCAARPDYFLWHGYYTRRHYYWGQGTQVTVSS | low polyreactivity |
| QVQLVESGGGLVQAGGSLRLSCAASGSTFTEYAMGWYRQAPGKERELVAAITRSGGGTYYADSVKGRFTISRDNAKNTVYLQINSLKPEDTAVYYCAKDWYRRYIRDYWGQGTQVTVSS | high polyreactivity |
| QVQLVESGGGLVQAGGSLRLSCAASGSTFTFYAMGWYRQAPGKERELVATISSSGGSTYYADSVKGRFTFSRDNAKKTVYLQMNSLKPEDTAVYYCAADPSIVDGEYGYWGQGTQVTVSS | low polyreactivity |
| QVQLVESGGGLVQAGGSLRLSCAASGSTFTGNAMGWYRQAPGKEREFVAAITYSGTRTNYADSVKGRFTISRDNAKNTVYLQMNSLKPEDTAVYYCAARFPWRRRYYYWGQGTQVTVSS | high polyreactivity |
| QVQLVESGGGLVQAGGSLRLSCAASGSTFTGNSMGWYRQAPGKERELVAAISRSGGSTFYADSVKGRFTISRDNAKNTVSLQMNSLKPEDTAVYYCATRYVVDMDYWGQGTQVTVSS | high polyreactivity |
| QVQLVESGGGLVQAGGSLRLSCAASGSTFTGYAMGWYRQAPGKERELVAAITRGGSTYYADSVKGRFTISRDNAKNTVFLQMNSLKPEDTAVYYCAAKPTSREPTGPRYYYWGQGTQVTVSS | high polyreactivity |
| QVQLVESGGGLVQAGGSLRLSCAASGSTFTHNGMGWYRQAPGKETELVASITWSGGSTYYAVSVKGRFTISRDNAKNTVYLQMNSLKPEDNAVYYCASDAKLYITGFDYWGQGTQVTVSS | low polyreactivity |
| QVQLVESGGGLVQAGGSLRLSCAASGSTFTHYALGWYRQAPGKEMELVAAITRRGGSTYYADSVKGRFTISRDYAKNTVYLQMNRLKPEDTAVYYCAARSRYDQEYDYWGQATQVTVSS | high polyreactivity |
| QVQLVESGGGLVQAGGSLRLSCAASGSTFTHYAMGWYRQAPGKERELVAAISSGGSTYYADSVKGRFTISRDNAKNTVYLQMNILKPEDTAVYYCASDYYWHDWWYPHDYWGQGTQVTLSS | low polyreactivity |
| QVQLVESGGGLVQAGGSLRLSCAASGSTFTHYAMGWYRQAPGKERELVAAISWGGGTTRYADSVKGRFTISRDNAKNTVYLQMNSLKPEDTAVYYCAKRVRTGSVGNFNYWGQGTQVTVSS | high polyreactivity |
| QVQLVESGGGLVQAGGSLRLSCAASGSTFTINFMGWYRQAPGKERELVAAINGGGRTNYADSVKGRFTISRDNAKNTVYLQMNSLNPEDTAVYYCAAEWRRYEYSDSWEYDYWGQGTQVTVSS | low polyreactivity |
